Measured values as given in publication PMC8034648, “Oligomeric complexes formed by Redβ single strand annealing protein in its different DNA bound states”.

Assays:
[1] = biological target: T1, Redβ single strand annealing protein (bacteriophage λ, UniProt P03698); experiment: SEC-MALS; strands added sequentially, PBS; 358 kDa, n=11.3; EMSA: 10 uM Redβ, 50 uM nt DNA, 37 C, in PBS, or 20 mM Tris-HCl pH 7.5/10 mM NaCl/10 mM MgCl2, or 50 mM ammonium acetate pH 7.0; SEC-MALS: PBS, complexes formed; conditions: protein: recombinant; tags: N-terminal GSH left after thrombin removal of 6xHis; chain copies: 11; blunt
T1 sequence: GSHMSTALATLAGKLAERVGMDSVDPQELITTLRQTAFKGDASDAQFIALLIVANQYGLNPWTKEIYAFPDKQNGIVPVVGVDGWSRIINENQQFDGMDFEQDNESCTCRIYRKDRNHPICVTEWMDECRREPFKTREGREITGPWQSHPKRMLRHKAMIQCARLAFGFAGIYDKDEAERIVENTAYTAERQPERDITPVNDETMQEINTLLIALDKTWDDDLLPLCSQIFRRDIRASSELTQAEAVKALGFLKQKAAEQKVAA

[2] = biological target: T1, Redβ single strand annealing protein; experiment: SEC-MALS; PBS; 653 kDa, n=21.1; EMSA: 10 uM Redβ, 50 uM nt DNA, 37 C, in PBS, or 20 mM Tris-HCl pH 7.5/10 mM NaCl/10 mM MgCl2, or 50 mM ammonium acetate pH 7.0; SEC-MALS: PBS, complexes formed; conditions: protein: recombinant; tags: N-terminal GSH left after thrombin removal of 6xHis; chain copies: 11
[3] = biological target: T1, Redβ single strand annealing protein; experiment: SEC-MALS; strands added sequentially, PBS; 591 kDa, n=18.2; EMSA: 10 uM Redβ, 50 uM nt DNA, 37 C, in PBS, or 20 mM Tris-HCl pH 7.5/10 mM NaCl/10 mM MgCl2, or 50 mM ammonium acetate pH 7.0; SEC-MALS: PBS, complexes formed; conditions: protein: recombinant; tags: N-terminal GSH left after thrombin removal of 6xHis; chain copies: 11; blunt
[4] = biological target: T1, Redβ single strand annealing protein; experiment: native MS; strands added sequentially, 1 uM Redβ; 22 subunits, one copy of each strand; EMSA: 10 uM Redβ, 50 uM nt DNA, 37 C, in PBS, or 20 mM Tris-HCl pH 7.5/10 mM NaCl/10 mM MgCl2, or 50 mM ammonium acetate pH 7.0; SEC-MALS: PBS, complexes formed; conditions: protein: recombinant; tags: N-terminal GSH left after thrombin removal of 6xHis; chain copies: 11; 3' overhang 4 nt on strand 2
[5] = biological target: T1, Redβ single strand annealing protein; experiment: EMSA; strands added sequentially, either order; EMSA: 10 uM Redβ, 50 uM nt DNA, 37 C, in PBS, or 20 mM Tris-HCl pH 7.5/10 mM NaCl/10 mM MgCl2, or 50 mM ammonium acetate pH 7.0; SEC-MALS: PBS, complexes formed; conditions: protein: recombinant; tags: N-terminal GSH left after thrombin removal of 6xHis; chain copies: 11; label: 5'-Cy5 on strand 1, 5'-Cy3 on strand 2; 5' overhangs 1 nt (49 bp)

B1: dT38:dA38 (dsDNA)
DNA 1: TTTTTTTTTTTTTTTTTTTTTTTTTTTTTTTTTTTTTT
DNA 2: AAAAAAAAAAAAAAAAAAAAAAAAAAAAAAAAAAAAAA
binding result [1]: binds

B2: 83- (ssDNA)
DNA: TTGCATATTTAAAACATGTTGAGCTACAGCACCAGATTCAGCAATTAAGCTCTAAGCCATCCGCAAAAATGACCTCTTATCAA
binding result [2]: binds

B3: 83-:83+ (dsDNA)
DNA 1: TTGCATATTTAAAACATGTTGAGCTACAGCACCAGATTCAGCAATTAAGCTCTAAGCCATCCGCAAAAATGACCTCTTATCAA
DNA 2: TTGATAAGAGGTCATTTTTGCGGATGGCTTAGAGCTTAATTGCTGAATCTGGTGCTGTAGCTCAACATGTTTTAAATATGCAA
binding result [3]: binds

B4: 83-:87+ (dsDNA)
DNA 1: TTGCATATTTAAAACATGTTGAGCTACAGCACCAGATTCAGCAATTAAGCTCTAAGCCATCCGCAAAAATGACCTCTTATCAA
DNA 2: TTGATAAGAGGTCATTTTTGCGGATGGCTTAGAGCTTAATTGCTGAATCTGGTGCTGTAGCTCAACATGTTTTAAATATGCAATGAC
binding result [4]: binds

B5: Cy5 50mer:Cy3 50mer (annealed sequentially or pre-formed) (dsDNA)
DNA 1: CCATCCGCAAAAATCGAGCTATGCAGGGCGATTCTGCTCTAAGCCATCCG
DNA 2: GCGGATGGCTTAGAGCAGAATCGCCCTGCATAGCTCGATTTTTGCGGATG
binding result [5]: binds
